We go through 8 molecules from paper PMC4760375, “A dual phosphorylation switch controls 14-3-3-dependent cell surface expression of TASK-1” (Journal of Cell Science, 2016).

Read-outs that look alike come from different tables or passages of the source. Non-standard residues stand in square brackets, D forms with d. Residues, ends and D or L forms follow the SMILES beside them. No end group written: not given here. pS = N[C@@H](COP(=O)(O)O)C(=O)O

Assay [1] deals with 14-3-3 proteins (all seven isoforms). Briefly: Fluorescence polarization titration, statements across the 14-3-3 isoforms. Format: binding, human. How it is done:
TASK-1 or TASK-3 C-terminal fluorescent peptides (10 nM), comprising the last 15 amino acids of the respective C-termini, were titrated with concentrations of the 14-3-3 proteins ranging from 1 nM to 120 µM (Fig. 2), and the equilibrium dissociation constants of 14-3-3 proteins were calculated for TASK-1 phosphorylated at S393 (TASK-1 pS393; the conserved serine residue of the mode III 14-3-3-binding motif) and for TASK-3 phosphorylated at S373 (TASK-3 pS373) (Table 1). They ranged from 7.5±0.14 µM (mean±s.e.m.; 14-3-3β) to 49.4±2 µM (14-3-3τ) for TASK-1, whereas dissociation constants for TASK-3 ranged from 110±10 nM (14-3-3η) to 3.6±0.44 µM (14-3-3σ). The latter value matches the result determined previously by [Anders et al. (2013]) for the TASK-3 C-terminal hexapeptide using isothermal titration calorimetry. The dissociation constants of the seven mammalian 14-3-3 isoforms for the same TASK C-terminal peptide differed up to sevenfold for TASK-1-derived peptides and up to 30-fold for TASK-3-derived peptides. […] No binding of any 14-3-3 isoform to any TASK C-terminal peptide was observed when the peptides were not phosphorylated.
Fig. 2. […] Fluorescence polarization titration of fluorescein-labeled TASK-1 pS393 (black), TASK-3 pS373 (red) and TASK-3 pS373 ΔV374 (blue) peptide (10 nM) with increasing concentrations of the indicated 14-3-3 isoform. Fluorescein was excited at 485 nm, and fluorescence polarization was monitored at 535 nm. A monophasic fit was used to fit the data (Goodness-of-fit: R^2 from 0.76 to 0.98). No binding was detectable for the unphosphorylated TASK C-terminal peptides. The assay was repeated at least six times for each data point with two batches of independently purified 14-3-3 proteins. Error bars depict s.e.m. (A) 14-3-3β, (B) 14-3-3γ, (C) 14-3-3ε, (D) 14-3-3ζ, (E) 14-3-3η and (F) 14-3-3τ.
[Mant et al. (2011)] report that both serine residues present in the TASK-1 C-terminus can be phosphorylated in vitro by the recombinant catalytic subunit of PKA. […] Next, using fluorescence polarization titration, we determined how phosphorylation of S392 affects the affinity of all seven mammalian 14-3-3 proteins for the TASK-1 C-terminus – either when phosphorylated alone or in combination with phosphorylation of S393 (Table S1). […] Because all Kd values determined for TASK-1 pS392 and the doubly phosphorylated protein (at S392 and S393) were substantially higher than those measured for TASK-1 pS393 (Table S1), we conclude that phosphorylation of S392 cannot substitute for phosphorylated S393 in creating a high-affinity 14-3-3 binding site. On the contrary, our results are consistent with an inhibitory role for phosphorylation of S392 with respect to 14-3-3-mediated binding.
Interactions between 14-3-3 proteins and TASK-1 and TASK-3 C-terminal peptides and variants were investigated using a fluorescence polarization assay ([Moll et al., 2006]; [Muda et al., 2014]). Fluorescein-labeled peptides were purchased from Peps4Life Sciences (Heidelberg, Germany). All measurements were performed in buffer containing 20 mM MOPS, 150 mM NaCl, 0.005% (v/v) CHAPS pH 7.0, using a Fusion™ α-FP microtiter plate reader at room temperature in a 384-well microtiter plater (Optiplate 384, black; Packard, Meriden, CT). 14-3-3 proteins were serially diluted from 100 µM to 1 nM and incubated with 10 nM of fluorescently labeled peptide. The fluorescence polarization signal was detected for 2 s at an excitation wavelength of 485 nm with an emission fluorescence polarization filter wavelength of 535 nm and a photomultiplier voltage of 1100. Data were analyzed with GraphPad Prism 6.0 (GraphPad Software, San Diego, CA) by plotting the obtained fluorescence polarization signal in millipolarization units (mPol) against the logarithm of the 14-3-3 protein concentration. The data were then fitted using a monophasic fit.

The target in assay [2] is GST-tagged TASK-3 C-terminal 15 residues fusion protein, phosphorylated with PKA catalytic subunit (human) (UniProt Q9NPC2). Briefly: SPR; GST fusion protein captured by an anti-GST antibody on an HC1000m chip, phosphorylated on the chip with PKA catalytic subunit; 14-3-3 proteins as analyte; 20°C; 150 mM NaCl, 20 mM HEPES, 0.005% (v/v) Tween 20, pH 7.5; equilibrium binding isotherms.

Assay [3] deals with TASK-3 pS373 C-terminal fluorescent peptide (last 15 amino acids) (human) (UniProt Q9NPC2). Kind of assay: fluorescence polarisation; 10 nM fluorescein-labelled peptide titrated with 14-3-3 protein (1 nM to 120 µM in the results, 100 µM to 1 nM in the methods); 20 mM MOPS, 150 mM NaCl, 0.005% (v/v) CHAPS pH 7.0; room temperature; monophasic fit. On the technique in general: Polarisation of emitted light reports the rotation of a fluorescent probe.

For assay [4], the target named is TASK-1 pS392 C-terminal fluorescent peptide (human) (UniProt O14649). Described as above.
The target in assay [5] is T1, GST-tagged TASK-3 C-terminal 15 residues fusion protein, phosphorylated with PKA catalytic subunit (human, UniProt Q9NPC2 360-374).
T1 chain: {GST}-SFTDHQRLMKRRK[pS]V
Kind of assay: SPR. (In general: SPR reads the build-up and loss of mass on a sensor chip optically.)

For assay [6], the target named is TASK-1 pS393 C-terminal fluorescent peptide (last 15 amino acids) (human) (UniProt O14649). Kind of assay: fluorescence polarisation; 10 nM fluorescein-labelled peptide titrated with 14-3-3 protein (1 nM to 120 µM in the results, 100 µM to 1 nM in the methods); 20 mM MOPS, 150 mM NaCl, 0.005% (v/v) CHAPS pH 7.0; room temperature; monophasic fit.
Setting [7] is: fluorescence polarization, best of the seven isoforms, read-out: Kd of the highest-affinity 14-3-3 interaction.

With `CSCC[C@H](NC(=O)[C@H](CC(C)C)NC(=O)CNC(=O)[C@H](CCCNC(=N)N)NC(=O)[C@H](Cc1ccccc1)NC(=O)[C@@H](NC(=O)[C@H](CO)NC(=O)[C@H](CC(C)C)NC(=O)[C@H](CO)NC(=O)[C@@H](N)CS)[C@@H](C)O)C(=O)N[C@@H](CCCCN)C(=O)N[C@@H](CCCNC(=N)N)C(=O)N[C@@H](CCCNC(=N)N)C(=O)N[C@@H](COP(=O)(O)O)C(=O)N[C@@H](CO)C(=O)N[C@H](C(=O)O)C(C)C` [TASK-1 pS392] (H-CSLSTFRGLMKRR[pS]SV-OH), the Kd (usually the equilibrium constant for the complex coming apart) in assay [1] (fluorescence polarization titration, all seven 14-3-3 proteins, read-out: Kd values across the 14-3-3 proteins (approximate, Table S1)) is about 100 µM.
With `CSCC[C@H](NC(=O)[C@H](CC(C)C)NC(=O)[C@H](CCCNC(=N)N)NC(=O)[C@H](CCC(N)=O)NC(=O)[C@H](Cc1c[nH]cn1)NC(=O)[C@H](CC(=O)O)NC(=O)[C@@H](NC(=O)[C@H](Cc1ccccc1)NC(=O)[C@H](CO)NC(=O)[C@@H](N)CS)[C@@H](C)O)C(=O)N[C@@H](CCCCN)C(=O)N[C@@H](CCCNC(=N)N)C(=O)N[C@@H](CCCNC(=N)N)C(=O)N[C@@H](CCCCN)C(=O)N[C@@H](COP(=O)(O)O)C(=O)N[C@H](C(=O)O)C(C)C` [TASK-3 pS373] (H-CSFTDHQRLMKRRK[pS]V-OH; N-terminus assumed), the Kd in assay [1] (setting [7]) was about 0.1 µM.
For the molecule `CSCC[C@H](NC(=O)[C@H](CC(C)C)NC(=O)CNC(=O)[C@H](CCCNC(=N)N)NC(=O)[C@H](Cc1ccccc1)NC(=O)[C@@H](NC(=O)[C@H](CO)NC(=O)[C@H](CC(C)C)NC(=O)[C@H](CO)NC(=O)[C@@H](N)CS)[C@@H](C)O)C(=O)N[C@@H](CCCCN)C(=O)N[C@@H](CCCNC(=N)N)C(=O)N[C@@H](CCCNC(=N)N)C(=O)N[C@@H](CO)C(=O)N[C@@H](COP(=O)(O)O)C(=O)N[C@H](C(=O)O)C(C)C` [TASK-1 pS393] (H-CSLSTFRGLMKRRS[pS]V-OH; N-terminus assumed), in assay [1] (fluorescence polarization, TASK-1 pS393 versus TASK-3 pS373), the “fold lower affinity for 14-3-3 proteins than the TASK-3 C-terminus” value is 10- to 100 fold. Besides, the dissociation constant (Kd) in assay [1] (setting [7]) is about 10 µM.
As to `CSCC[C@H](NC(=O)[C@H](CC(C)C)NC(=O)CNC(=O)[C@H](CCCNC(=N)N)NC(=O)[C@H](Cc1ccccc1)NC(=O)[C@@H](NC(=O)[C@H](CO)NC(=O)[C@H](CC(C)C)NC(=O)[C@H](CO)NC(=O)[C@@H](N)CS)[C@@H](C)O)C(=O)N[C@@H](CCCCN)C(=O)N[C@@H](CCCNC(=N)N)C(=O)N[C@@H](CCCNC(=N)N)C(=O)N[C@@H](COP(=O)(O)O)C(=O)N[C@@H](COP(=O)(O)O)C(=O)N[C@H](C(=O)O)C(C)C` [doubly phosphorylated peptide] (H-CSLSTFRGLMKRR[pS][pS]V-OH; N-terminus assumed), the “Kd values across the 14-3-3 proteins (approximate, Table S1)” value in assay [1] (fluorescence polarization titration, all seven 14-3-3 proteins) is on record as “high micromolar range”.
In the case of “14-3-3σ (from UniProt P31947 1-248) (natural protein)”, the Kd amounted to 0.742 µM in assay [2], 3.6 µM in assay [3] and 100 µM in assay [4].

B1: 14-3-3τ (natural protein)
chain: MEKTELIQKAKLAEQAERYDDMATCMKAVTEQGAELSNEERNLLSVAYKNVVGGRRSAWRVISSIEQKTDTSDKKLQLIKDYREKVESELRSICTTVLELLDKYLIANATNPESKVFYLKMKGDYFRYLAEVACGDDRKQTIDNSQGAYQEAFDISKKEMQPTHPIRLGLALNFSVFYYEILNNPELACTLAKTAFDEAIAELDTLNEDSYKDSTLIMQLLRDNLTLWTSDSAGEECDAAEGAEN
For the molecule B1, the results for the Kd in assay [5], in assay [6] and in assay [4] were 0.246 µM, 49.4 µM and 100 µM, respectively.

B2: 14-3-3ζ (natural protein)
chain: MDKNELVQKAKLAEQAERYDDMAACMKSVTEQGAELSNEERNLLSVAYKNVVGARRSSWRVVSSIEQKTEGAEKKQQMAREYREKIETELRDICNDVLSLLEKFLIPNASQAESKVFYLKMKGDYYRYLAEVAAGDDKKGIVDQSQQAYQEAFEISKKEMQPTHPIRLGLALNFSVFYYEILNSPEKACSLAKTAFDEAIAELDTLSEESYKDSTLIMQLLRDNLTLWTSDTQGDEAEAGEGGEN
With B2, the figures for the Kd in assay [5] and in assay [4] were 0.221 µM and 100 µM, respectively.

B3: 14-3-3η (natural protein)
chain: MGDREQLLQRARLAEQAERYDDMASAMKAVTELNEPLSNEDRNLLSVAYKNVVGARRSSWRVISSIEQKTMADGNEKKLEKVKAYREKIEKELETVCNDVLSLLDKFLIKNCNDFQYESKVFYLKMKGDYYRYLAEVASGEKKNSVVEASEAAYKEAFEISKEQMQPTHPIRLGLALNFSVFYYEIQNAPEQACLLAKQAFDDAIAELDTLNEDSYKDSTLIMQLLRDNLTLWTSDQQDEEAGEGN
As to B3, the Kd in assay [5] is 0.115 µM; in assay [3], 0.11 µM; in assay [4], 100 µM.
